Results taken from patent publication US8975044B2, “Polynucleotides encoding for frizzled-binding agents and uses thereof” (OncoMed Pharmaceuticals, Inc., priority 2008, dated 2015).
Substitutions are numbered along the chain they refer to.

Experiments:
[1] = tested on: OMP-C28 tumors; assay: Flow cytometry of ESA and CD44 on cells of treated OMP-C28 tumors; format: in vivo, NOD/SCID mice; details: tumors harvested day 48; control antibody 64%
Protocol: Control and treated tumors from the OMP-C28 xenograft study described above (Example 7) were harvested at the end of the study (day 48). The tumors were processed and dissociated into single cells. Tumor cells were then incubated with biotinylated mouse antibodies (α-mouse CD45-biotin 1:200 dilution and rat α-mouse H2 Kd-biotin 1:100 dilution, BioLegend, San Diego, Calif.) on ice for 30 min followed by addition of streptavidin-labeled magnetic beads (Invitrogen, Carlsbad, Calif.) to remove mouse cells with the aid of a magnet.
For analysis of cell surface markers, the single tumor cell suspension was stained with anti-ESA (Biomeda) and anti-CD44 (BD Biosciences) antibodies which were directly conjugated to fluorochromes. Dead cells were excluded by using the viability dye DAPI. Flow cytometry was performed using a FACS Aria (Becton Dickinson). Side scatter and forward scatter profiles were used to eliminate cell clumps.

[2] = tested on: PN4 tumors; assay: Alcian blue staining of treated PN4 tumor sections; format: in vivo, mice; details: relative to controls and the gemcitabine alone group; data not shown
Source text: Another characteristic of endocrine, secretory or ductal cells is the production of mucin and these cells can be detected by alcian blue staining (van Es et al. 2005. Nature 435 959-63). It was observed during harvesting and processing of tumors that the 18R5 treated tumors were much more mucinous than control treated tumors. Therefore, PN4 tumors sections from mice treated with control antibody, gemcitabine alone, 18R5 alone, or 18R5 plus gemcitabine were stained with alcian blue.

[3] = tested on: PE13 breast tumor; assay: PE13 breast tumor recurrence study; format: in vivo, Nod-Scid mice; details: taxol 15 mg/kg twice per week + 18R5 20 mg/kg once per week vs taxol + control antibody; taxol stopped at day 70
Protocol: PE13 breast tumor recurrence study with 18R5 mAb: PE13 breast tumor cells were injected into Nod-Scid mice and allowed to grow until the tumors had reached approximately 100 mm^3. The animals were randomized into two groups (n=10) and given taxol (15 mg/kg, twice per week)+Control antibody (black squares) or the same dose of taxol+Anti-FZD 18R5 (gray open circles). Antibodies were dosed at 20 mg/kg once per week. Taxol treatments were stopped at day 70 and the antibody treatments continued.

[4] = target: T1, FZD8 binding to Wnt3A (Homo sapiens, UniProt Q9H461); assay: Blocking of FZD8-Fc binding to Wnt3A (protein A depletion, STF293 reporter readout); format: biochemical; details: co-incubation with FZD8-Fc and Wnt3A conditioned medium, 2 hrs at 4° C., protein A beads removed
T1 construct: amino acids 1-157 of FZD8 linked in-frame to human IgG1 Fc
T1 sequence (Q9H461 28-157): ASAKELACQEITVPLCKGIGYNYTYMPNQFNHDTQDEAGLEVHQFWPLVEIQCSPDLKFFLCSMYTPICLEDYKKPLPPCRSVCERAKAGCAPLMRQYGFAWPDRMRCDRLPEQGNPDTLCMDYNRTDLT
Protocol: To assess the ability of 18R8 to block the binding of FZD to Wnt, 2 μl of 1.32 μg/μl soluble FZD8-Fc containing the Fri domain (amino acids 1-157 of FZD8 linked in-frame to human IgG1 Fc) was added to culture medium to bind Wnt3A (added as 20 μl of Wnt3A conditioned medium) either alone or in the presence of the 18R8 IgG antibody (added as 4 μl of 3.71 μg/μl). The mixtures were incubated either alone or in the presence of Protein A sepharose beads (GE Healthcare products; 20 μl of 50% solution in PBS) for two hrs at 4° C. After the incubation, the protein A beads (and any proteins complexed to the protein A beads) in each sample were removed by spinning and the supernatant was assayed for ability to induce 8×TCF luciferase activity. The supernatant was added to STF293 cells, which stably express 8×TCF (eight copies of the TCF-binding domain upstream of a firefly luciferase reporter gene) to measure canonical Wnt signaling levels and which were cultured in DMEM supplemented with antibiotics and 10% FCS. Eighteen hours following treatment of the STF293 cells, luciferase levels were measured using a dual luciferase assay kit (Promega; Madison, Wis.).

[5] = target: T2, FZD8 (Homo sapiens, UniProt Q9H461, S109Q); assay: Epitope mapping by FACS on FZD8 Fri domain variants on HEK293 cells; format: binding; details: amino acid 109S changed to 109Q
T2 construct: N-terminus of the Fri domain of FZD8 in turn fused to the transmembrane domain and intracellular domain of CD4 protein; expressed in transfected cells; host or cells: HEK293
T2 sequence (Q9H461 28-158 S109Q): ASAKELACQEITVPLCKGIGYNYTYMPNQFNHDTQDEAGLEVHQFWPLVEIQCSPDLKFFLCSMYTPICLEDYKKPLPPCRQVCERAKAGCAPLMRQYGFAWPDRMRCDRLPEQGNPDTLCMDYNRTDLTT

[6] = target: T3, FZD8 (Homo sapiens, UniProt Q9H461, D83Q/P82S); assay: as above; format: binding; details: amino acid residues 82-83 mutated from PD to SQ
T3 construct: N-terminus of the Fri domain of FZD8 in turn fused to the transmembrane domain and intracellular domain of CD4 protein; expressed in transfected cells; host or cells: HEK293
T3 sequence (Q9H461 28-158 P82S/D83Q): T2 sequence (Q9H461 28-158 S109Q) with P55S, D56Q, Q82S

B1: 18R5: human anti-FZD antibody; VH SEQ ID NO:10 (as 18R8), VL SEQ ID NO:14; binds FZD1, 2, 5, 7, 8 (antibody, V domains shown)
VH: EVQLVESGGGLVQPGGSLRLSCAASGFTFSHYTLSWVRQAPGKGLEWVSVISGDGSYTYYADSVKGRFTISSDNSKNTLYLQMNSLRAEDTAVYYCARNFIKYVFANWGQGTLVTVSS
VL: DIELTQPPSVSVAPGQTARISCSGDNIGSFYVHWYQQKPGQAPVLVIYDKSNRPSGIPERFSGSNSGNTATLTISGTQAEDEADYYCQSYANTLSLVFGGGTKLTVLG
modifications: 18R5/18R8 heavy chain variable region (VH); 18R5 light chain variable region (VL)
[1]
  bulk tumor population expressing both ESA and CD44 at high levels (double positive): 40%
[2]
  alcian blue staining: clear increase in alcian blue staining
[3]
  tumor regression and recurrence: enhance the rate of tumor regression and to delay tumor recurrence

B2: 18R8: human anti-FZD antibody from phage display; VH SEQ ID NO:10, VL SEQ ID NO:12; binds FZD1, 2, 5, 7, 8 (antibody, V domains shown)
VH: B1 VH
VL: DIELTQPPSVSVAPGQTARISCSGDKLGKKYASWYQQKPGQAPVLVIYEKDNRPSGIPERFSGSNSGNTATLTISGTQAEDEADYYCSSFAGNSLEVFGGGTKLTVLG
modifications: 18R5/18R8 heavy chain variable region (VH); 18R8 light chain variable region (VL)
[4]
  blocking of FZD8 binding to Wnt3A: blocked the ability of FZD8 to bind to Wnt3A
[5]
  binding to FZD8 variant: no appreciable effect
[6]
  binding to FZD8 variant: largely unaffected
